The supplement of paper PMC9170038

Tested on: MS2 coat protein
Test: apparent KD of MS2 coat protein; designed switch direction (-1 OFF switch, 1 ON switch): -1; higher = weaker reporter binding
Method in brief: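 RNA switches sharing common flanks were transcribed by stalled E. coli RNA polymerase on Illumina chips. A doubling series of SNAP-549-labelled MS2 coat protein, from 0.7 or 1.5 nM to 3 µM, was applied in Tris-HCl pH 7.5 buffer with KCl, MgCl2, BSA, DTT, tRNA and Tween-20. Each step lasted 0.8–1.5 h at the bottom of the series and 10–20 min at the top. Normalised cluster fluorescence was curve-fitted, giving apparent KD as the per-design median over clusters.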

[1] = Eterna round: R95, input ligand: microRNA oligo, concentration not stated
[2] = input ligand: microRNA oligo, concentration not stated
[3] = Eterna round: R95, input ligand: FMN 200 uM
[4] = Eterna round: R95, input ligand: none

Sequence	apparent KD of MS2 coat protein (input ligand: FMN 200 uM)	apparent KD of MS2 coat protein (input ligand: none)	other results
UAUUAGUGAGGAUAUGAGUCGUAGAACAAUAGUACUACGUCUCAGAAGGCACAUGAGGAUCACCCAUGUUCCUU [Fiskers Ex 4 Super Stable 44 mod 35] (puzzle: Exclusion 4)			apparent KD of MS2 coat protein [1]: 13.6 nM
CCGGUUGGCGCAGGAUAUACAUGAGGAUCACCCAUGUUCAUGAGGAUCACUCAUGAGUUUUUGUUGUAGAAGGGUGGCCCGGCC (Eterna round: R96, puzzle: Exclusion NG 2)	1170 nM	933 nM	apparent KD of MS2 coat protein [2]: 605 nM
UUCGUGCAGCUUUGCUGUACGCGUACAUGAGGAUCACCCAUGUAGGAUAUGGUAGGCUUUGCUUACUAGAAGGAUAUGGUGAGC [JL EXNG3 1.33] (Eterna round: R96, puzzle: Exclusion NG 3)	85.6 nM	36.1 nM	apparent KD of MS2 coat protein [2]: 37.2 nM
GUCAGCUCGUGAGGAUAUACAUCACUGCUUCGGCAGUGUAUUAAGAUCACAUGAGGAUCACCCAUGUAGAAGGUACGAGCUGAC [ENG2/2-C1] (Eterna round: R96, puzzle: Exclusion NG 2)	180 nM	22.1 nM	apparent KD of MS2 coat protein [2]: 21.5 nM
UUCUUGGCAGGAUAUGCUCUCUUAGACAUGAGGAUCACCCAUGUGUUCAUUCUUUCUUUUGCAGAAGGGCCUUAAU [JR_E5_Sub045] (puzzle: Exclusion 5)			apparent KD of MS2 coat protein [1]: 52.6 nM
UUUAACAAGCCAGAUCCUCACAUGAGGAUCACCCAUGUGCUCGUCUGAUUUUGUACUAUCAUGUGAGUGAUAGUGUU [Level Boss var2-06] (Eterna round: R96, puzzle: Sensor v3, turn-off variant 1)	200 nM	205 nM	apparent KD of MS2 coat protein [2]: 56.9 nM
UUUAACGAUGAGGAUAUAUGAUAUCAAAGCAUCAUAGAAGGCAUCACAUGAGGAUCACCCAUGUGAUCUUCUUU [Mat - Exclusion 6 - JL Mod - D29] (Eterna round: R97, puzzle: Exclusion 6)	69.6 nM	16.6 nM	
AAAAGGCGAGGAUAUACAUGAGGAUCACCCAUGUGAAAGAAAGAAAGAAAGAAGAAAGGUAGAAGGCGCAAAGA [Mine, also!] (puzzle: Exclusion 3)			apparent KD of MS2 coat protein [3]: 83.6 nM; apparent KD of MS2 coat protein [1]: 42.6 nM; apparent KD of MS2 coat protein [4]: 67 nM
AAAUCGGCAGGAUAUACAUGAGGAUCACCCAUGUAAAUUUUUCGUUUAACUUGAAUGUGUAGAAGGGCCAUUAA [Ex3 #64] (Eterna round: R97, puzzle: Exclusion 3)	24.8 nM	24.6 nM	
UUUUUGUCAGGAUAUGAGUAGUAGUACUAUUGUUUUAUUAUUUAGAAGGGACAUGAGGAUCACCCAUGUUUCUC [Bring Us a Shrubbery-01] (puzzle: Exclusion 4)			apparent KD of MS2 coat protein [1]: 14.4 nM
GCUUGUAGAGGAUAUACGAGGGCCCGAGCGGAUAACACCGCACAUGAGGAUCACCCAUGUAGAAGGCUACUAUU [JL-ex2-4.18 ViennaUCT mod] (Eterna round: R97, puzzle: Exclusion 2)	96 nM	105 nM	
UAUUUACAUGAGGAUCACCCAUGUCAGGAUAUGCGUCGAUCGUCGAAAGACGAUAGCCGCAGAAGGGACAAUAU [LRO-Excl01-20 mod derived from EliFisker 4.24] (Eterna round: R97, puzzle: Exclusion 1)	246 nM	83.1 nM	
GGUACUCAUGUGAGGAUAUGCUCGAAUGCAGACGAGCAGAAGGUACAUGAGGAUCACCCAUGUACCAUAAAGUA [Eternabot (Original) Solution 1] (Eterna round: R97, puzzle: Brourd's mod of Exclusion 4)	23.6 nM	13.1 nM	
CAGCUGAAUGUGAGGAUAUGUCGAGCCUCGGCUCGAUAGAAGGCACAUGAGGAUCACCCAUGUCUCAACAGCUG [BmEx4/2-C2] (Eterna round: R97, puzzle: Brourd's mod of Exclusion 4)	258 nM	34 nM	
AAUGGGUGUGUGAGGAUAUACGAAGGCAAUUGCCAGUAGAAGGUACAUGAGGAUCACCCAUGUGUCCAAAAGAG [Tititemaon] (puzzle: Brourd's mod of Exclusion 4)			apparent KD of MS2 coat protein [3]: 12.8 nM; apparent KD of MS2 coat protein [1]: 9.11 nM; apparent KD of MS2 coat protein [4]: 13.2 nM
CAGUACUGAGGAUAUACAUGAGGAUCACCCAUGUGCUUUAGCUAGGAUACUAGCAUCAGUAGAAGGCAGUACUG [Fiskers Ex 3 828 mod 11] (puzzle: Exclusion 3)			apparent KD of MS2 coat protein [1]: 12.9 nM
CAGAAUUGAGGAUAUGAUCAAUUUAACAUGAGGAUCACCCAUGUAUGGGAAUGAUUCUGAUCAGAAGGCGAUUCUU [Exclusion 5: 1:a] (puzzle: Exclusion 5)			apparent KD of MS2 coat protein [3]: 257 nM; apparent KD of MS2 coat protein [1]: 285 nM; apparent KD of MS2 coat protein [4]: 461 nM
UCAUGCUAAGGAUAUGACGUCGGCUACAUGAGGAUCACCCAUGUGGGUUCGUUAUGGCCAUUAGAAGGUAGCGAUU [Eternabot (L2) Solution 95] (Eterna round: R97, puzzle: Exclusion 5)	17.8 nM		

Sequence	apparent KD of MS2 coat protein (input ligand: FMN 200 uM)	apparent KD of MS2 coat protein (input ligand: none)	other results
UUUUGGCAAGCGAGAUCCGACAUGAGGAUCACCCAUGUGCGGGCCCGAAAAGGGCCCGCGGUUGCUCGUCUUGUGUG [free energy optimized] (Eterna round: R97, puzzle: Sensor, turn-off variant 1)	15.7 nM	16.9 nM	
AUAUAGAUAGUCAGGAUAUGCUAGUGAUAACAGUAGUAGAAGGGACAUGAGGAUCACCCAUGUAGAUACUGCAC [Brourd's EX4 #3] (Eterna round: R97, puzzle: Brourd's mod of Exclusion 4)	19.6 nM	19.3 nM	
CGAUGAGCGGUGAGGAUAUCGUGUUCGAAAGAACGUGAGAAGGCACAUGAGGAUCACCCAUGUGAUCCUCAUCG [Omei Ex4B A34] (Eterna round: R97, puzzle: Brourd's mod of Exclusion 4)	21.4 nM	15.2 nM	
GUAAAACAUGUAGGAUAUGCGUGGCGAAGCUAUGCAGAAGGACAUGAGGAUCACCCAUGUUAAAGCGUCUGCGUACAGAUGCAA [Mat - Exclusion NG 1 - Mod of JL - D94] (Eterna round: R96, puzzle: Exclusion NG 1)	279 nM	29.2 nM	apparent KD of MS2 coat protein [2]: 19.8 nM
UCAUGGUAGCAGGAUAUGCUAGAAAUUUUUUAUGCAGAAGGGCUUACAUGAGGAUCACCCAUGUGUUAGGUUUA [JR_E6_Sub071] (puzzle: Exclusion 6)			apparent KD of MS2 coat protein [3]: 22.3 nM; apparent KD of MS2 coat protein [1]: 110 nM; apparent KD of MS2 coat protein [4]: 221 nM
GUCGUGCGGCUUUGCUGUACGAGUACAUGAGGAUCACCCAUGUAGGAUAUGGUUCGUUUUGCGUGCCAGAAGGGCGUGCGUUGU [Excl-NG3-LRO14] (Eterna round: R96, puzzle: Exclusion NG 3)			apparent KD of MS2 coat protein [2]: 15.1 nM
UAACGGGCUUCUUCGUUUACAACAUGAGGAUCACCCAUGUUCGAGGAUAUCCACUAAGCUCUUCAGGAGAAGGCGAACAUAAUG [Rizaoran] (Eterna round: R96, puzzle: Exclusion NG 3)	37.2 nM	14.6 nM	apparent KD of MS2 coat protein [2]: 15.1 nM
AAAUAGCUUGAGGAUAUUGGACUGGAUUCAGUGCGAGAAGGCAAGACAUGAGGAUCACCCAUGUUGUGUUGGGA [EX6 #10] (Eterna round: R97, puzzle: Exclusion 6)	180 nM	91.6 nM	
AGUUCACAUGAGGAUCACCCAUGUGAGGAUAUGGAUUCGCUGGCCGUAGCCAGUGGAUCCAGAAGGCGCGUGAU [JL-ex1-4.15] (Eterna round: R97, puzzle: Exclusion 1)	55.7 nM	65.1 nM	
CUUGUUUAUGUAGGAUAUGCCUGGCGUGCCUUUGCAGAAGGACAUGAGGAUCACCCAUGUAGUAUGAGGCUUACCCUUGUCGCC [salish99_ExNG1_r04_120] (Eterna round: R96, puzzle: Exclusion NG 1)			apparent KD of MS2 coat protein [2]: 19.9 nM
AAAUAGUCAGGAUAUACAUGAGGAUCACCCAUGUAAACUUUUAGUUUAAUUUGAAUGUGUAGAAGGGACAUAAA [Ex3 #50] (Eterna round: R97, puzzle: Exclusion 3)	31.4 nM	29.3 nM	
GGUCGUUUAGUGAGGAUAUGCAGCGUCAUAGCGCAGCAGAAGGCACAUGAGGAUCACCCAUGUCCUCCCAAAAG [Eternabot (L1) Solution 9] (Eterna round: R97, puzzle: Brourd's mod of Exclusion 4)	253 nM	18.9 nM	
GUUGUGUGAGGAUAUGCCUGGCCGUGAGGCCAGAUUGGGUGGCAGAAGGUACAUGAGGAUCACCCAUGUACGGG [salish99_ex4_4_005] (Eterna round: R97, puzzle: Exclusion 4)	47.7 nM	47.5 nM	
ACACAGAUAGGAUAUCGGACUAUGGACAUGAGGAUCACCCAUGUGCGUCCAAUGUCCGACCGAGAAGGAUCAACAG [Teesvete] (puzzle: Exclusion 5)			apparent KD of MS2 coat protein [3]: 146 nM; apparent KD of MS2 coat protein [1]: 51.8 nM; apparent KD of MS2 coat protein [4]: 77 nM
AAAGGACGAGGAUAUACAUGAGGAUCACCCAUGUAAAAAGCAUAAUAAAAUAACUUAUGUAGAAGGCGUCCAAA [Mat - Exclusion 3 - Eli mod - D91] (Eterna round: R96, puzzle: Exclusion 3)			apparent KD of MS2 coat protein [2]: 18.5 nM
AGAAGUGCCGAGGAUAUCCAGGCAAUCUCGUUCGGAGAAGGCGGCACUUGAGGAUCACCCAAGUGCUCCAAAAG [Essoatxe] (Eterna round: R97, puzzle: Exclusion 6)	59.2 nM	18.9 nM	
AACUGUCUAGAGGAUAUGCUGGAUUAAUAUCUGGCAGAAGGUUGGACAUGAGGAUCACCCAUGUAAAUACUACC [Omei Ex6 A7] (Eterna round: R97, puzzle: Exclusion 6)	33.1 nM	20.3 nM	
